According to the supplement of paper PMC9170038:

System: MS2 coat protein
Test: apparent KD of MS2 coat protein; higher = weaker reporter binding
Conditions: Eterna round: R107
Summary of the method: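 SNAP-549-labelled MS2 coat protein was titrated onto designed RNA switches that had been transcribed on-chip from Illumina sequencing clusters. Amounts doubled from 0.7 or 1.5 nM to 3 µM in 100 mM Tris-HCl pH 7.5, 80 mM KCl, 4 mM MgCl2, with constant ligand or without. Apparent KD is the median per design of normalised cluster binding-curve fits.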

[1] = input ligand: theophylline 20 uM
[2] = input ligand: theophylline 2 mM
[3] = input ligand: tryptophan 2.4 mM

Sequence | apparent KD of MS2 coat protein (input ligand: arginine 13.2 mM) [nM] | apparent KD of MS2 coat protein [1] [nM] | apparent KD of MS2 coat protein [2] [nM] | apparent KD of MS2 coat protein [3] [nM] | apparent KD of MS2 coat protein (input ligand: none) [nM]
UAUAUAUAUCACGAACUGUGGUGUAUGUCCCGAGGACCGGUACGGCCGCCACUCGCGUGGUUCCACAUGAGGAUCACCCAUGUUG [XTryp A #7] | 20.9 | 31.3 | 25.9 | – | –
ACGCUGAUUGAUUACAAUCAGCGAAAAGAUACCAGUGGGUAAUCCCACCCUUGGCAGCUUAAACAUGAGGAUCACCCAUGUGGUA [TheoAS 14 #MS2Right #BothOrNeither #AlternativeMS2] | 79.9 | 146 | – | 126 | –
UAAUUCACUAUUCACGGUCCGAUGUUCGAUACCAGAUCAUUUCGAAUCCCUUGGCAGCGAUUAACAUGAGGAUCACCCAUGUAAC [theeternabot_exclusion_MS2_Theo_A_35] | 28.4 | 40.6 | – | 38.6 | –
UCUUUCUAUUGUGAUACCAGACGUACAUGAGGAUCACCCAUGUUUCAUUCUUGUUUUAAAGUCCCUUGGCAGCACUAUUUGUUCG [JR_Nu_ExcTheophyB_Sub028] | 19.6 | 23.9 | – | 15.9 | –
GCUUGCUUGUAAGGUUCUGUCCGGCGUCGUCGAGGACCGGUACGGCCGCCACUCGCGCGUUUACAUGAGGAUCACCCAUGUCAUG [theeternabot_exclusion_MS2_Trp_A_49] | 34.3 | 38.7 | 35 | 47.5 | 40.6
AACAUGGGAUUAAAAUAAAUAAUAACUGAUACCAGACUAUAUAAUGUCCCUUGGCAGCAGAUACAUGAGGAUCACCCAUGUAUUA [JR_Nu_ExcTheophyA_Sub023] | 12.2 | 14.9 | – | 12.8 | –
CCGCCUGCCUCACAUGAGGAUCACCCAUGUCGAGGACCGGUACGGCCGCCACUCGUCGUCGGUAAUACAGGCAUUGAAUAAUAUA [Vetire] | 12.1 | 14.8 | 12.1 | – | –
AAACAUGAGGAUCACCCAUGUUCUCCUGUCCGAGGACCGGUACGGCCGCCACUCGGUUCUCGGGAGGAUGGUCAAAGACUAUCCA [Omei Trp A SS B v8] | 12 | 16.9 | 13.5 | – | –
GGACUAACCAGAAGGAGCGACACGCAGAAACUGCAAAUUCCUCCACACGAGGAUCACCCGUGUCAGGUAGGUCGCUGGUUAGUCG | 27.8 | 31.1 | 28.4 | 22.2 | 24
GGGAUAUAGGCGGCCGCCACUGAUUUUCAUAUAUAUAUAACAUGAGGAUCACCCAUGUAGAUAUACAGGACCGGGCCUAUAUUUU [aaaD] | 14.8 | 17.4 | 21.1 | 13.5 | 15.2
AAUCCAAGAAAUGAUACCAGUCCCACUCAGGACAUGAGGAUCACCCAUGUAAUACAGGGAGACCCUUGGCAGCAUCGAAUAAACA [theeternabot_sameState_MS2_Theo_B_33] | 178 | 479 | – | 1070 | –
AAAUUAUCGGCGGCCGCCACUAGAGUUAGGCUUAUGUACUGGGUAACAUGAGGAUCACCCAUGUAUAGGACCGGGCCAUAAUAAA [Same State - Tryptophan B (Freestyle 4)] | 38.7 | 88.9 | 57.5 | 72.1 | 55.2
GACCGAUUAUAGUGCGAUUCUCUUGUGGAAGGAGCGCAGAGGACUGCAGGUAGGUCGCCACAUGAGGAUCACCCAUGUCAGGAUA [Esxebiat] | 65.6 | 89.6 | 708 | 10.6 | 183
GGGUCAGGCGCGGCCGCCACUGCGGUGAUGUGACAUGAGGAUCACCCAUGUUGUCAUGUGGCACAUAGGACCGGGCGCCUGGCCC [#1 Exclusion - Tryptophan B Attempt #7 (HarryS)] | 25.4 | 41.5 | 33.2 | – | –
GUUGGUUUGCGAAGGAGCGGGUAUGUUGUCUACUUGAUCCUAACAUGAGGAUCACCCAUGUCCCAGGUAGGUCGCGCGGGCUUUG [12.aC] | 37 | 63.9 | 81 | 46.8 | 45.1
AUAUUAGACCUGGAUACCAGCGACAUGAGGAUCACCCAUGUAUGUGCAUCUGCCAUGAUAUGCCCUUGGCAGCCACCGAGGUCGU [CZZMULLIN] | 12.4 | 16 | – | 10.8 | –
